Data published in publication PMC5593927, “Overlapping and Specific Functions of the Hsp104 N Domain Define Its Role in Protein Disaggregation” (Scientific Reports, 2017).
Where no end group is shown, it is not given here. The star is where a group is joined. Biotin = O=C1N[C@H]2[C@H](CS[C@H]2CCCCC(=O)*)N1; Ahx = NCCCCCC(=O)O

Legend:
[1] = target: T1, Hsp104N, isolated N domain of S. cerevisiae Hsp104 (first 165 residues) (S. cerevisiae, UniProt P31539 1-165); test: BLI; Octet RED96; biotinylated C1 peptide immobilised on streptavidin biosensors at 0.5 µM; Hsp104N 4.3 to 137 µM in solution; 50 mM Tris-HCl pH 8.5, 20 mM ammonium citrate, 10% PEG4000, 0.1 mg/ml BSA; 25 °C; 10 min association, 10 min dissociation; equilibrium shifts from two independent measurements; details: both partners purified
T1 construct: Hsp104, S. cerevisiae, isolated N domain consisting of the first 165 residues, cloned into pProEX HTb; Tag cleavage by TEV is told in the general purification paragraph, not for Hsp104N by name; also called His6-Hsp104N; source: E. coli BL21-CodonPlus (DE3)-RIL, purified (Ni-NTA, anion exchange); not shown: His6, N-terminal, cleaved

[2] = target: the molecule itself; test: crystal structure; Hsp104ND1 crystals grown at 4 °C, space group P6_(5)22, one molecule per asymmetric unit, nucleotide-free; N domain of one molecule contacts the C1 helix of the neighboring molecule; 2.8 Å

Row | Kd [1] | Binder | binding result [2]
1 | 14 ± 1.7 µM | {Biotin-Ahx}-GEVAEPSVRQTVAILRGLQ (Immobilised on streptavidin biosensors through the biotin; source: synthetic peptide (AAPPTec LLC)) [Biotinylated C1 peptide (Biotin-Ahx-GEVAEPSVRQTVAILRGLQ)] | 
2 |  | Hsp104ND1, N-terminal fragment of Saccharomyces cerevisiae Hsp104 (residues 1-360) (domain or fragment, S. cerevisiae, UniProt P31539 1-360, looked up, Hsp104, S. cerevisiae, residues 1-360: N domain and extended D1-large domain with the first helix of the D1-small domain (C1 helix, residues 343-351); residues 4 to 352 traced; The general purification text describes Ni-NTA and TEV cleavage of an N-terminal His6 tag; also called N-terminal fragment of yeast Hsp104) MNDQTQFTERALTILTLAQKLASDHQHPQLQPIHILAAFIETPEDGSVPYLQNLIEKGRYDYDLFKKVVNRNLVRIPQQQPAPAEITPSYALGKVLQDAAKIQKQQKDSFIAQDHILFALFNDSSIQQIFKEAQVDIEAIKQQALELRGNTRIDSRGADTNTPLEYLSKYAIDMTEQARQGKLDPVIGREEEIRSTIRVLARRIKSNPCLIGEPGIGKTAIIEGVAQRIIDDDVPTILQGAKLFSLDLAALTAGAKYKGDFEERFKGVLKEIEESKTLIVLFIDEIHMLMGNGKDDAANILKPALSRGQLKVIGATTNNEYRSIVEKDGAFERRFQKIEVAEPSVRQTVAILRGLQPKYE | binds
